Test results published in patent US20110135643A1 (BETH ISRAEL DEACONESS MEDICAL CENTER, published 2011).

target: T1, human HLA-A2.1 (HLA-A*0201) class I molecule on the surface of T2 cells (human); assay: MHC stabilization and dissociation assay on T2 cells, BB7.2 staining, flow cytometry
T1 construct: whole, on cells; The b2m chain is added because surface class I carries it
Experimental: Briefly, T2 cells were cultured for 6 hours in serum-free IMDM (ATCC) prior to the addition of candidate peptides at a concentration of 50 μg/250×10³ cells/ml and incubated overnight at 37° C. […] Cells were then washed three times with PBS and analyzed by flow cytometry. […] The relative binding affinity of a given peptide was calculated as MFI_{(peptide)}/MFI_{(negative peptide)}.
T2 cells were incubated overnight with 50 μg/ml of each candidate peptide at 37° C. in serum-free Iscove's Modified Dulbecco's Medium (IMDM). Cells were then incubated with Brefeldin A (Sigma, St. Louis, Mo.) at 10 μg/ml for 1 hour, washed, and incubated at 37° C. for 0, 2, 4 or 6 hours in the presence of Brefeldin A (50 ng/ml). Cells were then stained with BB7.2 mAb. For each time point, peptide-induced HLA-A2.1 expression was calculated as the difference of the mean fluorescence of peptide-loaded T2 cells and mean fluorescence of negative peptide-loaded T2 cells. The rate of dissociation is reflected by the loss of A2.1 expression over time.

Binder	binding result
KLIFLDSRV (9-mer peptide of SIM2) [SIM2(241)]	binds
YQIVGLVAV (9-mer peptide of SIM2) [SIM2(205)]	binds
TLDGFVFVV (9-mer peptide of SIM2) [SIM2(87)]	binds

Results, then the binder that gave them:

binding result	Binder
binds	FLDSRVTEV (9-mer peptide of SIM2) [SIM2(244)]
binds	SLDLKLIFL (9-mer peptide of SIM2) [SIM2(237)]
